This series can be described thus: yeast display, Sf9 membrane polyspecificity reagent, FACS + sequencing; frameworks hold sequencing errors. In outline:
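Nanobodies from a synthetic yeast display library (Saccharomyces cerevisiae BJ5465), induced 36–48 hours with galactose, were stained 1 hour at 4 °C with 10% biotinylated, detergent-solubilized Sf9 membrane reagent, enriched on streptavidin microbeads, then FACS-sorted. Anti-HA (expression) and streptavidin (reagent binding) fluorescence set low and high (top ~1%) gates. Polyreactivity labels come from the gate of origin. Genes were colony-PCR amplified, MiSeq 2 × 250 sequenced and filtered by CDR length.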
As for “QVQLVESGGGLVQAGGSLRLSCAASGSIFLIYARGSYRQAPGKERELVAAISGRVGSTYYADSVKGRFTISRDNAINTVYLQMNSLKPEDTAVYYCAARNSYGNWRYYYWGQGTQVTVSS”, the “polyreactivity (PSR sort gate)” value is “high polyreactivity”.

“QVQLVESGGGLVQAGGSLRLSCAASGSIFLKYVMGWYRQAPGKERELVAAISFRSGSTYYADSVKGRFTISRDNAKNTVYLQMNSLKPEDTAVYYCAADAWRSYGYRAYDYWGQGTQVTVSS”: the “polyreactivity (PSR sort gate)” value was “high polyreactivity”.

As for “QVQLVESGGGLVQAGGSLRLSCAASGSIFLLYAMGWYSQAPGKVRELVAAISRSGDSTHYADSVKGRFTISRDNAKNTVYLQMNSLKPEDTAVYYCAADGYDPYGGLYDYWGQGTQVTVSS”, the “polyreactivity (PSR sort gate)” value was “low polyreactivity”.

Turning to “QVQLVESGGGLVQAGGSLRLSCAASGSIFLQNAMGWYRQAPGKERELVAAITNGGSTNYADSVKGRFTISRDNAKHTVYLQLNSLKPEDTAVYYCAAYPLYTGSYDRGGYWGQGTQVTVSS”, the “polyreactivity (PSR sort gate)” value is reported as “low polyreactivity”.

For the sequence “QVQLVESGGGLVQAGGSLRLSCAASGSIFLQNAMGWYRQAPGKERELVAAITNGGSTNYADSVKGRFTISRDNAKNTVYLQMNSLKPEDTAVYYCAAYPLYTGSYDRGGYWGQGTQVTVSS”, the “polyreactivity (PSR sort gate)” value is reported as “low polyreactivity”.

In the case of “QVQLVESGGGLVQAGGSLRLSCAASGSIFLRNAMGWSRQAPGKERELVAAISRSGGRTYYADSVKGRFTISRDNAKNTVYLQMNSLKPEDTAVYYCAADWADKYTGRYDYWGQGTQVTVSS”, the “polyreactivity (PSR sort gate)” value was “high polyreactivity”.

As for “QVQLVESGGGLVQAGGSLRLSCAASGSIFLSNAMGWYRQAPGKERELVAAISRRGASTYYADSVKGRFTISRDNAKNTVYFQMNSLKPEDTAVYYCAALSYSAYGYNYWGQGTQVTVSS”, the “polyreactivity (PSR sort gate)” value was “high polyreactivity”.

Regarding “QVQLVESGGGLVQAGGSLRLSCAASGSIFLTNVMGWYRQAPGKERELVAAISSGGNTYYADSVKGRFTISRDNAKNTVYLQMNSLKPEDTAVYYCAVRYRYDYWGQGTQVTVSS”, the “polyreactivity (PSR sort gate)” value was “high polyreactivity”.

Take “QVQLVESGGGLVQAGGSLRLSCAASGSIFLTYTMGWYRQAPGKERELVAGISSRGGGTYYADSVKGRFTISRDNAKNTVYLQMNSLKPEDTAVYYCAAAIGYPHYWGRRKFYYWGQGTQVTVSS”: the “polyreactivity (PSR sort gate)” value is listed as “low polyreactivity”.

Regarding “QVQLVESGGGLVQAGGSLRLSCAASGSIFLVNAMGWYRQAPGERKELVAAISWSSGSTYYADSVKGRFTNSRDNAKNTVYLQMNSLKPEDTAVYYCAKRSSITYRYDYWGQGTQVTVSS”, the “polyreactivity (PSR sort gate)” value is “high polyreactivity”.

“QVQLVESGGGLVQAGGSLRLSCAASGSIFLVYALGWYRQAPGKERELVATITRGGGTYYADSVKGRFTISGDNAKNTVYLQMNSLKPEDTAVSYCAYPLSRTWGNYLAWSYPRDDSWGQGTQVTVSS”: the “polyreactivity (PSR sort gate)” value is “high polyreactivity”.

As for “QVQLVESGGGLVQAGGSLRLSCAASGSIFLVYAMGWYRQAPGKERELVAAIRWSGGSTYYADSVKGRFTISRDNAKNTVYLQMNSLKPEDTAVYYCNAGESYSVKGGPYDSDYWGQGTQVTVSS”, the “polyreactivity (PSR sort gate)” value is listed as “low polyreactivity”.

Turning to “QVQLVESGGGLVQAGGSLRLSCAASGSIFLWNAKGWYRQAPGKERELVAAISSGTSTNYADSVKGRFTISRDNAKNTVYLQMNSLKPEDTAVYYCAARGRKNQRRYGYWGQGTQVTVSS”, the “polyreactivity (PSR sort gate)” value is recorded as “low polyreactivity”.

In the case of “QVQLVESGGGLVQAGGSLRLSCAASGSIFLYNAMGWYRQAPGKERELVADISWSGGSTYYADSVKGRFTISRDNAKNTVYLQMNSLKPEDTAVYYCNAVVYWFSTSYVYTYDYWGQGTQVTVSS”, the “polyreactivity (PSR sort gate)” value is listed as “high polyreactivity”.

Turning to “QVQLVESGGGLVQAGGSLRLSCAASGSIFLYNTMGWYRQAPGKERELVAAITSGGNTNYADSVKGRFTISRDNAKNTVYLQMHSLKPEDTAVYYCNVDLKAWLPDGGSVDYWGQGTQVTVSS”, the “polyreactivity (PSR sort gate)” value is on record as “low polyreactivity”.

In the case of “QVQLVESGGGLVQAGGSLRLSCAASGSIFLYNTMGWYRQAPGKERELVAAITYSGGSTYYADSVKGRFTISRDNAKNTVYLQMNSLKPEDTAVYYCAARRLPRKERKLYYWGQGTQVTVSS”, the “polyreactivity (PSR sort gate)” value is “high polyreactivity”.

For “QVQLVESGGGLVQAGGSLRLSCAASGSIFLYYAMGWYIQATGKERELVATITSGGRTSYADSVKGRFTISRDNAKNTVYLKMNSLKPEDTAVYYCAGRYGWFTPYDYWGQGTQVTVSS”, the “polyreactivity (PSR sort gate)” value is “high polyreactivity”.

For the sequence “QVQLVESGGGLVQAGGSLRLSCAASGSIFLYYAMGWYRQAPGKERELVAAITGGGGTNYADSVKGRFTISRDNAKNTVYLQMNSLKPEDTAVYYCAADPSGQFPYSYYNYDYDYWGQGTQVTVSS”, the “polyreactivity (PSR sort gate)” value is given as “low polyreactivity”.

With “QVQLVESGGGLVQAGGSLRLSCAASGSIFLYYTMGWYRQAPGKERELVAAITWGGGTTYYADSVKGRFTISRDNAKNTVYLQMNSLKPEDTAVYYCAAEGSYPRMDYWGQGTQVTVSS”, the “polyreactivity (PSR sort gate)” value was “low polyreactivity”.

As to “QVQLVESGGGLVQAGGSLRLSCAASGSIFLYYTMGWYRQAPGKEREMVAAITSGSSTNYADSVKGRFTISRDNAKNTVYLQMNSLKPEDTAVYYCATQYTLSYPSIDFDYWGQGTQVNVSS”, the “polyreactivity (PSR sort gate)” value was “low polyreactivity”.

In the case of “QVQLVESGGGLVQAGGSLRLSCAASGSIFLYYTMGWYRQEPGKERELVAAITWSGASTYYADSVKGRFTISRDNAKNTVYLQMNSLKPEDTAVYYCATRYRYRYWGQGTQVTVSS”, the “polyreactivity (PSR sort gate)” value is listed as “high polyreactivity”.

For the sequence “QVQLVESGGGLVQAGGSLRLSCAASGSIFNANAMGWYRQAPGKERELVAGIRSGSSTNYADSEKGRFTISRDNAKNTVYLQMNSLKPEDTAVYYCATEGYWVYGFDDEYWGQGTQVTVSS”, the “polyreactivity (PSR sort gate)” value is “low polyreactivity”.

Take “QVQLVESGGGLVQAGGSLRLSCAASGSIFNAYDMGWYRQAPGKERELVAGISSSDSTYYADSVKGRFTISRDNAKNTVYLQMNSLKPEDTAVYYCAADPVFAAAYIHLYGIYDSWGQGTQVTVSS”: the “polyreactivity (PSR sort gate)” value is given as “low polyreactivity”.

Consider “QVQLVESGGGLVQAGGSLRLSCAASGSIFNDYAMGWYRQAPGKERELVAAITSSDGRTFYADSVKGRFTISRDNAKNTVYLQMNSLKPEDTAVYYCAAEWTSRYSTYEYWGQGTQVTVSS”, for which the “polyreactivity (PSR sort gate)” value is on record as “low polyreactivity”.

“QVQLVESGGGLVQAGGSLRLSCAASGSIFNENPMGSYRQAPGKERELVAVITHRTGSTYYADSVKGRFTISRDNAKYTFYLQLTSLTPEDTAVYYCATRTRRNRYRGGEYDYWGQGTQVTVSS”: the “polyreactivity (PSR sort gate)” value is recorded as “low polyreactivity”.

As to “QVQLVESGGGLVQAGGSLRLSCAASGSIFNGNAMGWYRQAPGKERELVARITSGSSTYYADSVKGRFTISRDNAKNTVYLQMNSLKPEDTAVYYCAAVYGRYISYRWRSLYDYWGQGTQVTVSS”, the “polyreactivity (PSR sort gate)” value is “high polyreactivity”.

In the case of “QVQLVESGGGLVQAGGSLRLSCAASGSIFNGYDMGWYRQAPGKERELVAAISLSGDSTYYADSVKGRFTISRDYAKKTVYLQMNSLKPEDTAVYYCAAADYFRSYWGQGTQVTVSS”, the “polyreactivity (PSR sort gate)” value is recorded as “low polyreactivity”.

Consider “QVQLVESGGGLVQAGGSLRLSCAASGSIFNINAMGWYRQAPGKERELVAAISKRGGSTYYADSVKGRFTISRDNAKNTVYLQLNSLKPEDTAVYYCAADLTGVDYDYWGQGTQVTVSS”, for which the “polyreactivity (PSR sort gate)” value is “high polyreactivity”.

Regarding “QVQLVESGGGLVQAGGSLRLSCAASGSIFNLYAMGWYRQAPGKERELVAAIRWSGGSTYYADSVKGRFTISRDNAKNTVYLKMKSMKPEDTAVYYCNAEWKSYRVPKFEYWGQGTQVTVSS”, the “polyreactivity (PSR sort gate)” value is “low polyreactivity”.

As for “QVQLVESGGGLVQAGGSLRLSCAASGSIFNLYAMGWYRQAPGKERELVAGIRWSGGRTYYADSVKGRFTISRDNAKNTVYLQMNSLKPEDTAVYYCNAGGYLSWWNDYDYWGQGTQVTVSS”, the “polyreactivity (PSR sort gate)” value is recorded as “high polyreactivity”.

On to “QVQLVESGGGLVQAGGSLRLSCAASGSIFNLYAMGWYRQAPGKERELVATITWSGGSTYYADSVKGRFTISRDNAKNTVYLQMNSLKPEDTAVYYCAATALEWYPAVYNQYYYWGQGTQVTVSS”, for which the “polyreactivity (PSR sort gate)” value is “low polyreactivity”.

Consider “QVQLVESGGGLVQAGGSLRLSCAASGSIFNPYVMGWYRQAPGKERELVAAISSSGGRTYYADSVKGRFTLSRDNAKNTVDFQMNSLKPEDTAVYYCAAKPRQGYDYWGQGTQVTVSS”, for which the “polyreactivity (PSR sort gate)” value is recorded as “high polyreactivity”.

Consider “QVQLVESGGGLVQAGGSLRLSCAASGSIFNRNAMGWYRQAPGKERELVATITRNGGRTYYADSVKGRFTISRDNAKNTVYLQMNSLKPEDTAVYYCNAVRQRLRPGNLFDLDYWGQGTQVTVSS”, for which the “polyreactivity (PSR sort gate)” value is recorded as “low polyreactivity”.

As for “QVQLVESGGGLVQAGGSLRLSCAASGSIFNRYSMGWYRQEPGKERELVASIRGTGSTYYADSVKGRFTISRDNAKNTVYLQMNSLKPEDTAVDYCAARPGYLYSKYNYWGQGTQVTVSS”, the “polyreactivity (PSR sort gate)” value is listed as “high polyreactivity”.

In the case of “QVQLVESGGGLVQAGGSLRLSCAASGSIFNSYAMGWYRQAPGKERELVAAISSGGGRTYYAVSVKGRFKISRDNAKNTVYLQMNSLKPEDTAVYYCAKYYRAFIRDYNYWGQGTQVTVSS”, the “polyreactivity (PSR sort gate)” value is “high polyreactivity”.

For “QVQLVESGGGLVQAGGSLRLSCAASGSIFNTYAMGWYRQAPGKERELVAAITWSGGSTYYADSVKGRFTISRDNAKNTVYLQMNSLKPEDTAVYYCAARQRRQSYWGQGTQVTVSS”, the “polyreactivity (PSR sort gate)” value is given as “high polyreactivity”.

In the case of “QVQLVESGGGLVQAGGSLRLSCAASGSIFNVYAMGWYRQAPGKERELVAAISDGDGSTFYADSVKGRFTISRDNAKNTVYLQMNSLKPEDTAVYYCAKDYRWDRKFDYWGQGTQVTVSS”, the “polyreactivity (PSR sort gate)” value is given as “low polyreactivity”.

In the case of “QVQLVESGGGLVQAGGSLRLSCAASGSIFNYNAMGWYRPAPGKERELVAALNSGGSTNYADSVKGRFTISRDNAKNTVYLQMNSLKPEDPAVYYCAADNYSQGVPYDYWGQGTQVTVSS”, the “polyreactivity (PSR sort gate)” value was “low polyreactivity”.

As to “QVQLVESGGGLVQAGGSLRLSCAASGSIFNYTMGWYRQGPAQERQLVAVISRSGGRTYYADSVKGRFTISRDNAKNTVYLQMNSLKPEDTAVYYCATDGHNGYYGRYDYWGHGTQVTVSS”, the “polyreactivity (PSR sort gate)” value is reported as “high polyreactivity”.

Regarding “QVQLVESGGGLVQAGGSLRLSCAASGSIFNYYAMGCYRQAPGKERELVAAIETTGGSTYYADSVKGRFTNSRDNAKNTVYLQMNSLKPEDTAVYYCAATWGKPWYYEYDYWGQGTQVTVSS”, the “polyreactivity (PSR sort gate)” value is “low polyreactivity”.

Consider “QVQLVESGGGLVQAGGSLRLSCAASGSIFNYYAMGWNRQAPVKETEFVADISGSGSSTYYADSVKGRFTISRDNAKNTVYLQMNSLKPEDTAVYYCIAEYYWGVGYYPYSDYGYWGQGTQVTVSS”, for which the “polyreactivity (PSR sort gate)” value is given as “low polyreactivity”.
